The results in this text go back to paper PMC10524356.

The target in test [1] is HIV-2 Gag polyprotein in immature particles (HIV-2 ROD). The experiment in a line: cryo-EM structure.
Test [2] has as its target HIV-2 capsid (CA) protein carboxyl-terminal domain, CA residues 145-230 (HIV-2 ROD). The experiment in a line: crystal structure.

The term stoichiometry N denotes the number of molecules, sites or subunits per partner or assembly. As for “HIV-2 Gag polyprotein in immature particles (natural protein)”, the stoichiometry N in test [1] is 6.

“HIV-2 capsid (CA) protein carboxyl-terminal domain, CA residues 145-230 (domain or fragment)”: in test [2], the stoichiometry N came to 2.
